Reference: patent publication US20150337309

Columns and labels:
periostin (Homo sapiens) [1] = biological target: T1, periostin (Homo sapiens) (UniProt Q15063); assay: filter
T1 sequence: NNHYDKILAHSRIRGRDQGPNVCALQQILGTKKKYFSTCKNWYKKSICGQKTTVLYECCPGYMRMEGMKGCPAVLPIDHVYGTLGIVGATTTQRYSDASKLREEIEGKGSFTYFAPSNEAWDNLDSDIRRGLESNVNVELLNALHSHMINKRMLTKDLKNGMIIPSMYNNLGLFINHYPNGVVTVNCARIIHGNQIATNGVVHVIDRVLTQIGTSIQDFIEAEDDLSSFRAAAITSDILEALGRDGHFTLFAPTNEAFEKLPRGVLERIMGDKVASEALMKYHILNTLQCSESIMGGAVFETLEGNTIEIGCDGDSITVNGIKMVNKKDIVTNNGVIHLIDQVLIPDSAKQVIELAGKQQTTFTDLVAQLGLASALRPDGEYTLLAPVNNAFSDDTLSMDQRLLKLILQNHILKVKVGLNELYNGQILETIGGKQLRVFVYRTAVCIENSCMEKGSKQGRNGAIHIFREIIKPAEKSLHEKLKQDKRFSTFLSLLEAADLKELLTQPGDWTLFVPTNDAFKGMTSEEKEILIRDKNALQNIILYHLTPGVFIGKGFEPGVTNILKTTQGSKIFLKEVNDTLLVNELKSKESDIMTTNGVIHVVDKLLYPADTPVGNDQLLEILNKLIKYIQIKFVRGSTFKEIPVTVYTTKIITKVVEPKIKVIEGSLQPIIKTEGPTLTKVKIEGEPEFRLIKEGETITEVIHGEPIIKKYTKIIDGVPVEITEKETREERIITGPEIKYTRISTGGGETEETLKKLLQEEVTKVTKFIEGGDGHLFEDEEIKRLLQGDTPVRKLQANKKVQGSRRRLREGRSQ

periostin (Homo sapiens) [2] = biological target: T1, periostin (Homo sapiens); assay: cell_activity; details: BndU at all n [BndU at 6,7,9,14,16,21,22,26,28,31,34,35,44]; MDA-MB-231 adhesion to periostin-coated wells, 100 nM aptamer; control aptamer no effect

“ACGAGTCACACGTTGATGACTGGATGGTAGTTAAAGAGGGTGGGGCAACAA [PNDA-2]” gave a Kd (periostin (Homo sapiens) [1]; BndU at all n [BndU at 6,13,14,17,21,25,28,31,32,41], Bmax 78%) of 7.41 nM.
“ACGAGTCTGGTCCTTCCTCCCTAATTGCTGTTGAGGTATCGGCTACAACAA [PNDA-4]” gave a Kd (periostin (Homo sapiens) [1]; BndU at all n [BndU at 6,8,11,14,15,18,22,25,26,29,31,32,37,39,44], Bmax 90%) of 1 nM.
Sequence “ACGAGTCTGGTCCTTCCTTTGACGACTATTGTTTGGTATCGATCAACAACAA [PNDA-1]” has a Kd (periostin (Homo sapiens) [1]; BndU at all n [BndU at 6,8,11,14,15,18,19,20,27,29,30,32,33,34,37,39,43], Bmax 92%) of 2.85 nM.
Sequence “ACGAGTTGTCGCATGTGCGGTTCAGTCTGGTCCTTCAGCACCGTACAACAA [PNDA-3]” has a Kd (periostin (Homo sapiens) [1]; BndU at all n [BndU at 6,7,9,14,16,21,22,26,28,31,34,35,44], Bmax 95%) of 1.07 nM and an activity (periostin (Homo sapiens) [2]) of 60 % inhibition.
With “GATGTGAGTGTGTGACGAGTCACACGTTGATGACTGGATGGTAGTTAAAGAGGGTGGGGCAACAACAGAACAAGGAAAGG [clone 3 full length]” the Kd (periostin (Homo sapiens) [1]; BndU at all n of the core [BndU at 20,27,28,31,35,39,42,45,46,55], Bmax 72%, 200 mM HEPES, 510 mM NaCl, 25 mM KCl, 25 mM MgCl2, 37 C) was 0.54 nM.
For “GATGTGAGTGTGTGACGAGTCTGGTCCTTCCTCCCTAATTGCTGTTGAGGTATCGGCTACAACAACAGAACAAGGAAAGG [clone 17 full length]”, the Kd (periostin (Homo sapiens) [1]; BndU at all n of the core [BndU at 20,22,25,28,29,32,36,39,40,43,45,46,51,53,58], Bmax 78%, same buffer, 37 C) was 0.63 nM.
For “GATGTGAGTGTGTGACGAGTCTGGTCCTTCCTGTATTAGATCATATCCTTAGGTATCGTCAACAACAGAACAAGGAAAGG [clone 1 full length]”, the Kd (periostin (Homo sapiens) [1]; BndU at all n of the core [BndU at 20,22,25,28,29,32,34,36,37,41,44,46,49,50,54,56,59], Bmax 80%, same buffer, 37 C) was 0.6 nM.
“GATGTGAGTGTGTGACGAGTCTGGTCCTTCCTTTGACGACTATTGTTTGGTATCGGACAACAACAACAGAACAAGGAAAGG [clone 5 full length]” gave a Kd (periostin (Homo sapiens) [1]; BndU at all n of the core [BndU at 20,22,25,28,29,32,33,34,41,43,44,46,47,48,51,53], Bmax 80%, same buffer, 37 C) of 1.41 nM.
In the case of “GATGTGAGTGTGTGACGAGTTGTCGCATGTGCGGTTCAGTCTGGTCCTTCAGCACCGTACAACAACAGAACAAGGAAAGG [clone 8 full length]”, the Kd (periostin (Homo sapiens) [1]; BndU at all n of the core [BndU at 20,21,23,28,30,35,36,40,42,45,48,49,58], Bmax 81%, same buffer, 37 C) is reported as 1.14 nM.
